Experimental data published in patent US20190359693A1.

Target: hemagglutinin (HA) of influenza virus H3N? A/Env/MPJ193/09 (influenza A virus)
Experiment: cell-based or functional assay

B1: MD2407 (bispecific antibody)
chain: EVQLVESGGGLVQPGGSLRLSCAVSISIFDIYAMDWYRQAPGKQRDLVATSFRDGSTNYADSVKGRFTISRDNAKNTLYLQMNSLKPEDTAVYLCHVSLYRDPLGVAGGMGVYWGKGALVTVSSGGGGSGGGGSEVQLVESGGGLVQAGGSLKLSCAASGRTYAMGWFRQAPGKEREFVAHINALGTRTYYSDSVKGRFTISRDNAKNTEYLEMNNLKPEDTAVYYCTAQGQWRAAPVAVAAEYEFWGQGTQVTVSSGGGGSGGGGSEVQLVESGGGLVQPGGSLRLSCAATGFTLENKAIGWFRQTPGSEREGVLCISKSGSWTYYTDSMRGRFTISRDNAENTVYLQMDSLKPEDTAVYYCATTTAGGGLCWDGTTFSRLASSWGQGTQVTVSSGGGGSGGGGSEVQLVESGGGLVQPGGSLKLSCAASGFTFSTSWMYWLRQAPGKGLEWVSVINTDGGTYYADSVKDRFTISRDNAKDTLYLQMSSLKSEDTAVYYCAKDWGGPEPTRGQGTQVTVSS
- average neutralization titer: 24.5 nM
